Molecular target: T1, SARS-CoV-2 Spike S1+S2 ECD, his Tag protein (SARS-CoV-2, Wuhan-Hu-1, UniProt P0DTC2)
T1 construct: also called full-length S protein; full-length S-his; source: bought: Sino Biological
Assay: ELISA
Conditions: both partners purified

B1: P4A1 (antibody, V domains shown)
VH: EVQLVESGGGLIQPGGSLRLSCAASGFIVSSNYMSWVRQAPGKGLEWVSIIYSGGSTFYADSVKGRFTISRDNSKNTLYLQMNSLRVEDTAVYYCARDLQELGSLDYWGQGTLVTVSS
VL: DIQMTQSPSSVSASVGDRVTITCRASQGISSWLAWYQQKPGKAPKLLIYAASSLQSGVPSRFSGSGSGTDFTLTISSLQPEDFATYYCQEANSFPYTFGQGTKLEIK
notes: also called P4A1 (IgG1); IgG1 form P4A1
**Q.** Does B1 bind?
**A.** binds
